The assay concerns the target recombinant full-length USP7 (UniProt Q93009 1-1102). As to the kind of experiment: co-IP.

Data on one molecule can be found in publication PMC3201865 (Nucleic Acids Research, 2011).

recombinant full-length USP7, sequence (Q93009 whole entry): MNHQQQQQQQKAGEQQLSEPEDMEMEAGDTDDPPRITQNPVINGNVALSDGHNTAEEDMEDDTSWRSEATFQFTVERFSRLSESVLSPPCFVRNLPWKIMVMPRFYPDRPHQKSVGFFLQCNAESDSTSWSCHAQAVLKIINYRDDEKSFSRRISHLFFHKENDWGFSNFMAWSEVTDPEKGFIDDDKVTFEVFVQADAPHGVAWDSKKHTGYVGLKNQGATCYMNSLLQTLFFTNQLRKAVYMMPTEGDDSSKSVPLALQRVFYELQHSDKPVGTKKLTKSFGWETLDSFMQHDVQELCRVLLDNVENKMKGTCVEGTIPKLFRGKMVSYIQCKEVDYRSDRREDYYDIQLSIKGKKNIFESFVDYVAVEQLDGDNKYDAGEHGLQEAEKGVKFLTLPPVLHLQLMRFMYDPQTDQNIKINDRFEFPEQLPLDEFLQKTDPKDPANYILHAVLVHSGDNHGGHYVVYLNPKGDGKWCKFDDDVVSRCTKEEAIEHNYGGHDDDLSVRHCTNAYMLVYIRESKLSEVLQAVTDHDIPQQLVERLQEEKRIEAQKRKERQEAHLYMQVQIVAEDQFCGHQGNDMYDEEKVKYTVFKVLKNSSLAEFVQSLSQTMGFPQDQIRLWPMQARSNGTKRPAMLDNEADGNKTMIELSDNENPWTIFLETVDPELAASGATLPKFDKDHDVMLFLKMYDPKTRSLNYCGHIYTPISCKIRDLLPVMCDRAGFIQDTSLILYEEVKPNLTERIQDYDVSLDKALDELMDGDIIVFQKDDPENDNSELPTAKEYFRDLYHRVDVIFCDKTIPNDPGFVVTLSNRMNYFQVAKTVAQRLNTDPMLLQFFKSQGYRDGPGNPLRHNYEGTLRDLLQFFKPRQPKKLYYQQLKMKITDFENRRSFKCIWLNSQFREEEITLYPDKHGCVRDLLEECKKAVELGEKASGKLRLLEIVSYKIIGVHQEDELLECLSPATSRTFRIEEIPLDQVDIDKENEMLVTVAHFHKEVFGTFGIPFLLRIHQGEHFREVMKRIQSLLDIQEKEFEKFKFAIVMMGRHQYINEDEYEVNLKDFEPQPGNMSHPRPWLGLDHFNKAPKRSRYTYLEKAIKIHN

B1: recombinant full-length UHRF1 (natural protein)
chain: MWIQVRTMDGRQTHTVDSLSRLTKVEELRRKIQELFHVEPGLQRLFYRGKQMEDGHTLFDYEVRLNDTIQLLVRQSLVLPHSTKERDSELSDTDSGCCLGQSESDKSSTHGEAAAETDSRPADEDMWDETELGLYKVNEYVDARDTNMGAWFEAQVVRVTRKAPSRDEPCSSTSRPALEEDVIYHVKYDDYPENGVVQMNSRDVRARARTIIKWQDLEVGQVVMLNYNPDNPKERGFWYDAEISRKRETRTARELYANVVLGDDSLNDCRIIFVDEVFKIERPGEGSPMVDNPMRRKSGPSCKHCKDDVNRLCRVCACHLCGGRQDPDKQLMCDECDMAFHIYCLDPPLSSVPSEDEWYCPECRNDASEVVLAGERLRESKKKAKMASATSSSQRDWGKGMACVGRTKECTIVPSNHYGPIPGIPVGTMWRFRVQVSESGVHRPHVAGIHGRSNDGAYSLVLAGGYEDDVDHGNFFTYTGSGGRDLSGNKRTAEQSCDQKLTNTNRALALNCFAPINDQEGAEAKDWRSGKPVRVVRNVKGGKNSKYAPAEGNRYDGIYKVVKYWPEKGKSGFLVWRYLLRRDDDEPGPWTKEGKDRIKKLGLTMQYPEGYLEALANREREKENSKREEEEQQEGGFASPRTGKGKWKRKSAGGGPSRAGSPRRTSKKTKVEPYSLTAQQSSLIREDKSNAKLWNEVLASLKDRPASGSPFQLFLSKVEETFQCICCQELVFRPITTVCQHNVCKDCLDRSFRAQVFSCPACRYDLGRSYAMQVNQPLQTVLNQLFPGYGNGR
On to B1, for which the binding result was “binds”.
